Laboratory results: paper PMC6987189, “Native aggregation is a common feature among triosephosphate isomerases of different species” (Scientific Reports, 2020)

System: O=C[C@H](O)COP(=O)(O)O
Assay: purified protein
Format: biochemical, Giardia duodenalis
Details: GAP to DHAP direction, 25 °C, 100 mM TEA, 10 mM EDTA, 0.2 mM NADH, GAP 0.3 to 3 mM

GlTIM (Giardia duodenalis; C202A) showed a Km of 100 ± 10 µM, a kcat of 3280 ± 103 s⁻¹ and a kcat/Km of 2.9e+07 M⁻¹ s⁻¹.
